{"source": "the DeepSol protein solubility set", "data": [{"assay": "soluble on expression in E. coli; label from the status in PepcDB or PDB records", "values": [{"sequence": "MGSDKIHHHHHHMNAVLPRLAMRDIVKSFGSVRVLDGVSLDVMPGEIVALLGSNGAGKSTLMKILTANYTKNAGDIRVNDTLVDFASPRDAARVGITFLPQEISVFPELSVAENICMSADSKGTVDWSGMARRSAAVLDDLGFGHLSPDMLVADLPVAERRIIEIARALEGQADILVMDEPTASLSEQESEQIFTILRRLKDRGTSIVYISHYLKEVFEISDRIVVLRDGLNAGEFDPTTADVTKVVGAMLGKAAGSMFDDRDPLPASAPVVFTCAGLTLPGVIEDVSFDLRAGEILGIFGLIGSGVEVLGRAIFGTQGRPPAGAMTLNGTPYTPVSPRKGKEAGIGFVTAERKTDGIMADMSVRENIVAAFQSDLGHGPFTSPAREAAHTLDWIEKLGIKTSGPEQAIRLLSGGNQQKVCVARWLNPKVKMLILEEPTRGVDVGARREIYSHLVDFARSGLAVLVLSSDVEEVAGLSDRSLVIDRGRILAEFGRGATPGDLMAASAQSEHHD", "soluble on expression in E. coli": "not soluble"}, {"sequence": "MSLSYEYFPGFYDRLMDSELYDEWLEFSADFIGDAPKKVLDLACGTAEFALRLSFSGHQVTGVDLSKEMVAVAKEKVAAAEIDLPIIEQDMSKLALKQTFDVVTCFCDSLNYLETEQALEATIQAVSAHLEPNGLFLFDVHSVFKIEQGFKDYSYGDSDEEISTIWNSFPGEHPHSIEHELTFYILGEDDTYNRVDELHKERTYPIATYENLLKKFGFTKIDIYADFSHEKPNKTSERIFFAARKEGHHHHHH", "soluble on expression in E. coli": "soluble"}, {"sequence": "MTQYVFEMGMTCNGCANAARKVLGKLGEDKIKIDDINVETKKITVTTDLPASDVLEALKKTGKEIKQLQ", "soluble on expression in E. coli": "not soluble"}, {"sequence": "MAHHHHHHMDKISPEILAARAKLKEKMGGNLRQIGGKGSARRKIKKVHKNSMSNEKKINLILKKIGASYFGDVDEICVYKAGDTYMEFKRPKLSASLQSNTYVVTGKFTEQKIDINKIFEGLKGNKNVDMNLLEKIKNDPNIKNLLNKENNGNAKKEEGAQEAADVPDLVENFEEVSKEEQK", "soluble on expression in E. coli": "soluble"}, {"sequence": "MAHHHHHHMEDFLTKLKKISEQYNNLLLEKKIIDKRIANIGENIRKYEETREKSLEDVELKKNQLLKNKNKHIIMCQKMEQLNGKLNEILIRKQSIDDDEEKKVINKQIHTVNNTYVLLKHVQNLNDAMLKDEGNRYYKLITENIHSKSFSNRKTLNILNSFLRKSRANIQERGSEGAKSSTPPAAIHSANYFKIIQTNDIVQKLLDLFSGDHTALTIDKQQFLFVLLMNVLRKIACASEMAIPPEDCNSRHHVIYNFLHNKYILHL", "soluble on expression in E. coli": "soluble"}, {"sequence": "MSSDDEIYNENNDLDEEFSDDMDQQSGSSGESQGKANYEILDPTALESDMSKTISEVQAILQVEPGICRILLHKFKWNKDRLLDKFYEHSDTTEFLAEAQVIPKTSSSEEAAGSSAPPPGGDAECDVCCSMTRLSGLACAHRACDECWKAYLTEKIVDVGQSEIECMMMDCKLLIEDEKVMSYITDPFVIAAYRKLIISSYVETNSQLKWCPGAGCGKAVKGEPSDREPAVCTCGERFCFACAQDWHDPLSCRHMKMWRKKCSDDSETLNWINANTKPCPKCSVTIEKNGGCNHMSCKSSSCRYEFCWLCLGDWKNHAQCNRYVEDDNKTDSRSLSRKNLQRYLFYYNRFMAHQNSMKLEGKLYAKVEVKMDLMQALSMSWIEVQFLRRAVDALCECRRTLKYAYAFAYYLEANNMTTLFETNQSDLELATEQLSGMLEGDLEDNDLAELKRKVQDKYRYVELRRKKMLDHCAEGVELDSWVFCE", "soluble on expression in E. coli": "not soluble"}, {"sequence": "GSHMDPLMQKIDISENPDKIYFIRREDGTVHRGQVLQSRTTENAAAPDEYYVHYVGLNRRLDGWVGRHRISDNADDLGGITVLPAPPLAPDQ", "soluble on expression in E. coli": "soluble"}, {"sequence": "MTPLSSPLSQYWQTVVERLPEGFTETSLSVQAKSVLTFSDFALDSVIAHPEWLAELESASPQADEWRHYAGWLQEALAGVCDDASLMRELRFFRRRIMVRIAWAQTLSLVDDETILQQLSHLAETLIVGARDWLYAACCREWGTPCNPQGVPQPLLILGMGKLGGGELNFSSDIDLIFAWPEHGETRGGRRELDNAQFFTRLGQRLIKALDQPTMDGFVYRVDMRLRPFGDSGPLVLSFAALEDYYQEQGRDWERYAMVKARLMGDNDDAWSRELRAMLRPFVFRRYIDFSVIQSLRNMKGMIAREVRRRGLKDNIKLGAGGIREIEFIVQVFQLIRGGREPSLQSRSLLPTLDAIAALHLLPENDVAQLRVAYLFLRRLENLLQSINDEQTQTLPADDLNRARLAWGMKAENWPQLVGELTDHMANVRRVFNELIGDDEADTPQEEERSEPWREVWQDALQEDDSTPVLAHLADEERRQVLTLIADFRKELDKRPIGPRGRQVLDQLMPHLLADVCSREDAAVTLSRITPLLAGIVTRTTYLELLSEFPGALKHLIMLCAASPMIASQLARYPLLLDELLDPGTLYQPTATDAYRDELRQYLLRVPEEDEEQQLEALRQFKQAQLLRIAAADIAGTLPVMKVSDHLTWLAEAMIDAVVQQAWTQMVARYGQPAHLDERQGRGFAVVGYGKLGGWELGYSSDLDLIFLHDCPMDVMTNGEREIDGRQFYLRLAQRIMHLFSTRTSSGILYEVDARLRPSGAAGMLVTSADAFADYQQHEAWTWEHQALVRARVVYGDPQLTSQFDAVRRTIMTTARDGKTLQTEVREMREKMRAHLGNKHRDRFDIKADEGGITDIEFIAQYLVLRYAHEKPKLTRWSDNVRILELLAQNGIMDEHEAQALTVAYTTLRDELHHLALQELPGHVAQTCFSKERALVQASWRKWLVAV", "soluble on expression in E. coli": "not soluble"}, {"sequence": "GPGSMTSASKKSTEENSEEVECTNSSRKRRMRQRERNIYISECHGIKELSSLVRRGFQQIMTARGLFISGCPDLVKLDDGTSGEEEGGEYYRQLEEVQVSRCPRLTDLSGLGKCKYLKVVDISDCRKLENIGELKSCRTLEKLALSRCTGLVDVNLRGFGKLLSFDIFKCANLTKICGLFGCPILETLTVEECGDVKEMEVRTIRGRVETLRIAGKRAMENVGFLCLFTNMKKLALCGCVGTVAEVLGEEAGGLPRLKWLELIGIRMERQMKDKPGNGVAATEEGNNAKRVLPMIVQNE", "soluble on expression in E. coli": "not soluble"}, {"sequence": "MKTVLVDWNLIPYAEAWQRQTEWFDTLVRAKAQGEAYENRIIMCEHPHVYTLGRSGKENNMLLNDDQLKAIQATLFHIDRGGDITYHGPGQLVCYPILNLEEFHLGLKEYVHLLEEAVIRVCASYGIEAGRLEKATGVWLEGSTPRARKICAIGVRSSHYVTMHGLALNVNTDLRYFSYIHPCGFIDKGVTSLRQELKHEVPMDEVKQRLECELGRLLNEKKQQIAQ", "soluble on expression in E. coli": "not soluble"}, {"sequence": "MALNDNPIPKSVPLHPKSGKYFHNLHARDLSNIYQQCYKQIDETINQLVDSTSPSTIGIEEQVADITSTYKLLSTYESESNSFDEHIKDLKKNFKQSSDACPQIDLSTWDKYRTGELTAPKLSELYLNMPTPEPATMVNNTDTLKILKVLPYIWNDPTCVIPDLQNPADEDDLQIEGGKIELTCPITCKPYEAPLISRKCNHVFDRDGIQNYLQGYTTRDCPQAACSQVVSMRDFVRDPIMELRCKIAKMKESQEQDKRSSQAIDVL", "soluble on expression in E. coli": "soluble"}, {"sequence": "MAIVLLVLHVCTGLRGSPVSGRVRMAVDSGIYLAPCSNNDAQEHLKRTVINGVDRDDYGQYTNVGFGDSVSIWGVKGGNESHWQDIDAGDYLFFYTGDETYSQVAEVLATDQNEGLAEHLWPGFEDTWEFIIYLNEPIPVNIDSNEIADYAGYKQNYILGFQSLRGSAVDEINDEYGSIEGYINANRTDGNHIQTSGGSQDPDEGDDSVVDEVLDEADRDEEAYANIARQLEEVGQVVFYGPPGTGKTYNAQQFARWWLHNLQSEPRESQVRSVTFHPSYTYEDFIEGLTANATENSVSYDIKPGKFKAICEDARVAYQETGPNEEPPRYVLLIDEINRGNLAQIFGETITLLEEDKRGTLHVDLAHSGGSFTIPPNLYVIGTMNTADRSVALVDAALRRRFRFIDFPPDYGVARSRFGFDTEYDLTSAARGERSDLEQLQALSIQAVEQLNETIIELPDLGKGKQIGHSYLLVDPDDEQALVDAWRYEILPLLEEYFYGQLSRIRQELFNQNGDSLVDWEREQIKDFDPETLRESLQAIVNAGLEHHHHHH", "soluble on expression in E. coli": "not soluble"}, {"sequence": "MSLEIKPEDTWRLEDIFSTDDAWEKEFQEVKQLLPDAGGFQGKLGDSADKLYEALQYQDHLLERLGRLYSYAHMRYDQDTTNSFYQGLDDRIKNLYSQAASSLAYIVPEILAIDEEKISSFLDEKEELRLYKHSLEEINLQRPHVLSAEAEALLAQASEVLDAPGNTFGMLNNADLEFPSIKDENGEEVEVTHGRYIRFLESDDQRVRRDAFKAVYDTYGKFKNTFSSTLSSNVKKDNFYARVRNYDSARHAALSDNNIPESVYENLVNTVNDNLHLLHRYIKLRKEVLGLEKLHMYDLFTPLVKDVKMEIPYDEAKDYVLKGLEPLGEEYLSVLKEGFENRWVDVHENKGKRSGAYSSGAYGTNPYILMNWQDNVNNLFTLAHEFGHSVHSYYTRKTQPYPYGNYSIFVAEVASTCNEALLNDYLLKTIDDDQKRLYLLNHYLEGFRGTVFRQTMFAEFEHQIHQKAQNNEALTAEALTQDYYELNKKYFGEEDIIIDEEIGLEWSRIPHFYYNYYVYQYATGFSAATALSKQILEEGEPAVERYINFLKAGSSDYPIEVLKKAGVDMTSPAPIADACKVFEEKLNEMEELLNREGHHHHHH", "soluble on expression in E. coli": "soluble"}, {"sequence": "MKLNLKNPLIFFDLETTGVDLVRDRIVEISILKVMPDGSEECKTRRINPERPIPPESTAIHGIRDEDVKDCPPFRSVAKSLAQWIEGCDLAGFNSTRFDVPMLVEEFLRAGVDIDLRHRKLIDVQTIFHKMEPRTLEAATRFYCNRTLENAHSAEADTRATYDVFKAQLDRYEGTLENDMAFLADFSRQSRNVDFAGRLVYDDNDNVIINFGKYRGRKALDVLRTDSGYYGWIMDADFTLNTKQEFTRLRMSLNNPETK", "soluble on expression in E. coli": "soluble"}, {"sequence": "MIFENRLALSAMAGVNNAEFCRKQKASLVILGGFNADRRALEAAEKAVKRGRKEFLFGIDGIEGEIKKLGRRKFAVNVRSSSLEGYLNVAELVAEFEGIIEINAHCRQPEFVEIGCGEWLLFNHERLVEIVSKTSRIAPTFVKIRGGHKLDYEKIARKLFDAGCLAIHVDAMIPGGGCDFSLIERISRIGNVIGNNSFVDIESGERIIMAGAKMASAARAVLRDENFFEKMLRSPLLSQPVELSCGRFR", "soluble on expression in E. coli": "not soluble"}, {"sequence": "ESIYIQSPYFIPDQAFLDSIKIAALGGVDVNIMVPNKRDHPFVYWATLKNVASLLEAGVNVYHYDNGFLHSKTLVIDDEVASVGTANMDNRSFTLNFEVNAFIYDEGVARSLKQAFINDMKLSNKLTSEEYAKR", "soluble on expression in E. coli": "not soluble"}, {"sequence": "AMGSATISRRGILVIRHGERVDQVFGKSWLQQCTTADGKYYRPDLNFPRSLPRRSNGIKDFENDPPLSSCGIFQARLAGEALLDSGVRVTAVFASPALRCVQTAKHILEELKLEKKLKIRVEPGIFEWMKWEASKATLTFLTLEELKEANFNVDLDYRPALPRCSLMPAESYDQYVERCAVSMGQIINTCPQDMGITLIVSHSSALDSCTRPLLGLPPRECGDFAQLVRKIPSLGMCFCEENREDGKWDLVNPPVKTLTHGANSVFNWRNWIS", "soluble on expression in E. coli": "soluble"}, {"sequence": "MGSDKIHHHHHHMIIELNKSNSENLTKTELEIIKFINENESILPELSIVEIAHETYSSPATVSRAIRKCGLNGFNELRYRLTVKDENDDIQNMGDIINKSFIEAQRVIEQISLTTLINIIKTINKSSKIYILARGLTEYVAKEFSLKLQLLDFNVVFINDPNIMKIKSKSIKKDELIIIFSLNGNTIELVESAQNANLVGAKVITCCCSESAKLIKYSDLYIVGYKHEHISISEYEVSSRLPLYIISRIIIDYMVRYNNSEN", "soluble on expression in E. coli": "not soluble"}, {"sequence": "MTTILAFDIETVPDVQGIRTLYELPSSLPDDEVVLFAQQKRRAQTGGDFMQHHLHQVVAISCCMRWGQDKVHVGTIGEMDDGEEVVIAKFFELIEKHTPQLVSWNGGGFDLPVLHYRSLIYGINAARYWDMGDGDFGDSRDFKWNNYISRYHQRHCDLMDLLALYQPRANVPLDDMAKLCGFPGKLGMDGSKVWEAFHTGRLKEIRNYCETDAANTYLMYLRFCLVSGRLDADEYEMEIKRMRNYLSAQAGEKPHWEEFVRAWE", "soluble on expression in E. coli": "not soluble"}]}]}
